T1: Taf5, subunit of Komagataella phaffii TFIID (Komagataella phaffii, UniProt F2QWD3 1-722)
T1 construct: Taf5, TFIID subunit of the yeast Komagataella phaffii (formerly Pichia pastoris); WD40 repeat and NTD (residues 99–243) modelled in the cryo-EM map; two copies in holo-TFIID; source: endogenous, K. phaffii nuclear extract; co-purified in TFIID by SBP-tagged Taf2 (streptavidin beads, sucrose gradient)
T1 sequence (looked up): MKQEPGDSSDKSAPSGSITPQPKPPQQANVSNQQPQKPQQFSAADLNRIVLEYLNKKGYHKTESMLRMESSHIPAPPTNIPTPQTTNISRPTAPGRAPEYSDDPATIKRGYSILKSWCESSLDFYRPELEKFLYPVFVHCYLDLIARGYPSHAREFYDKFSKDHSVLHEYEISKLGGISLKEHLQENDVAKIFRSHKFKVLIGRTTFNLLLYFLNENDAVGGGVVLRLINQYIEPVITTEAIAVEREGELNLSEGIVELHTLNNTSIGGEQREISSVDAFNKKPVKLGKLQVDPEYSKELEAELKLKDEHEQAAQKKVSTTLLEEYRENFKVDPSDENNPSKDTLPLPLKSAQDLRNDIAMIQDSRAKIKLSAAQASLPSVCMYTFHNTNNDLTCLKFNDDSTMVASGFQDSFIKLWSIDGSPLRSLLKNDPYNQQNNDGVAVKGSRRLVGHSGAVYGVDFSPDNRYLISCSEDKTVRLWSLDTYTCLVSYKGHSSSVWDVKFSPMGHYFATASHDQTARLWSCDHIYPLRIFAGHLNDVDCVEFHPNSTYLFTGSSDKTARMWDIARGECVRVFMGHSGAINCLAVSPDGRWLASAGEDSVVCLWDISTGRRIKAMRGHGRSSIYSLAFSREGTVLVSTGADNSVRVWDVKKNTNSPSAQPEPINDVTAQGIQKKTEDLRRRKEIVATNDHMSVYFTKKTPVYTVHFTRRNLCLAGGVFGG


Assays:
[1] = biological target: T1, Taf5, subunit of Komagataella phaffii …; assay: cross-linking; 50 µg purified TFIID, 3 mM BS3, 2 h at 25 °C; trypsin, SCX fractionation, Orbitrap Fusion MS; pLink and Nexus, 5% FDR; conditions: both partners purified
[2] = biological target: T2, Taf2 with C-terminal streptavidin-binding peptide tag, subunit of Komagataella phaffii TFIID (Komagataella phaffii, UniProt F2QRH9 1-1571); assay: affinity purification with mass spectrometry; TFIID purified from K. phaffii nuclear extract by the SBP tag at the C-terminus of Taf2 (streptavidin beads, 250 mM potassium acetate, elution with 10 mM biotin, 10–30% sucrose gradient); SDS-PAGE and mass spectrometry of the purified complex; conditions: partners not purified
T2 construct: Taf2, TFIID subunit of the yeast Komagataella phaffii (formerly Pichia pastoris); residues 36 to 1194 modelled in the cryo-EM map; bait of the purification; also called SBP-tagged Taf2; source: K. phaffii strain with SBP-tagged Taf2, nuclear extract; purified (streptavidin beads, biotin elution, sucrose gradient)

binding result [1] | binding result [2] | Binder
binds | – | Taf12, subunit of Komagataella phaffii TFIID (natural protein, UniProt F2QSK7 1-609, looked up, Taf12, TFIID subunit of the yeast Komagataella phaffii (formerly Pichia pastoris); histone-fold domain modelled in the cryo-EM map; source: endogenous, K. phaffii nuclear extract; co-purified in TFIID by SBP-tagged Taf2 (streptavidin beads, sucrose gradient)) MNQPPNQPQDNDSQVSSSGMQGGNSMNYSSSAPVNGAGQGPQPQQNSQGQNGKKPVGMQQAQIQLLARRYQLEMQKAHQLGPQTPQGAEHLQTATKIKHVLLSYQQQRQRQQGQVQGQGLSQPQGQNQAQGRVQQQTQGLSPDPGSHQGSPQFQQPHQVMMGSAQTAGTSIANPQAQSNISSQVSQMAAAKVNSASPPIPPKTVGTPTGTPVGTQPRGQVTIQQFQQVKSILEEFEKKLRTIEAAKRDQNLPEETLQKLLRQEAILKQRYAQTKATAYQMSQHLQRQQQALRAASAESAEVYVTGSASSPNMNVYNQQILTQQPQQQLQQQQLHQPQPQQPQPARQSPHLLIHQQQQQQQQQQQQQQQQQQHPVTHRPSNVSQTMPQPSQPLQSSTPSSAVGRNQSPGATPVTSVNAAAKPSPGTSSTSTLINQHILKPAPPPTEIPARLQVKPPQPAAMKIPNRPTLLGGSAISQPSLTTPVSIRPPPLEMEGDHVLQKRKLKELLRNVGADEGDGETVIDGDVEELLLDLADEFVTSVTSFACRLAKHRKVDNIDMRDVQLHLERNWNIRVPGYASDEIRSVRKFQPTAGYNQKVQGVAISKSVNKN
– | binds | Taf1 (TBP-associated factor 1), subunit of Komagataella phaffii TFIID (natural protein, UniProt F2QMX2 1-1010, looked up, Taf1, TFIID subunit of the yeast Komagataella phaffii (formerly Pichia pastoris); native subunit of the purified complex; also called KpTaf1; source: endogenous, K. phaffii nuclear extract; co-purified in TFIID by SBP-tagged Taf2 (streptavidin beads, sucrose gradient)) MDVDFDNALNGQVGGFDQFFDGTTKHADNAIDFSDEEELADEEVGDAPQRRTDVDDEHKPPEGTYEMNLSGSEKEDLLFKNLEREASEGTELPLPTIGGLKVPNFDNNIGLNETISERNECNQISNSHFVKHLEKTMIRTQMLKYYYPSFQKSKPISFSSLFPPPLASFQLYDGRDCTPLLPLKALQEVDPDEKKIFKSSFSAHQSKGDKRSQSVKHIELMELESNNTQIPPRKQKETLKHLDRNIVLSTLSWDDTELLSDKLEERHNRNRTKPNFQQMQYDDWDVDTDMILEGTLDTSRLNLKLDMNDPHLLFLNQKHKPSPAGKMNARFPMNSKSFEMKFNISNDMQYQMLKDNYQSKIRSTIGNLSIDHSIPATILQTPFYKVKLSKQELRRFHRPVFNSRPNSTILFSKIKTRKKKKDRGKETKELFKKSVDLTLGDSASFFLLEYSEEQPVALSNFGMGSKLINYYRKLNDDDNSRPKLPVGETHVLGVQDRSPFWNFGFVEPGNLVPTFYNNMVRAPIFRHEPEETDFLLIRSSGGGISPRYFLRSLDHVFTVGQTFPVVDVPGPHSRKVTSTSKNRLKMIVYRVLNKNERHRLVVKDISIHFPDQNDMQNRQRLKEFMEYQKNGEDHGFWKIKGNEILPGFKEIQQMIQPEDIALLEAMQFGQLNLEDYDSLREETLIGQTTATTEEALQVQMAPWSTTKNFIQATQGKAMLQVHGIGDPSKKGEAISFLRISMKGGFKSSMEDIVEKAEQMDNKKSQGHSYNVAVQQKMYDEEISRVWYAQQRALSKTSDMMERELGPTEAPTASSVYDDQNQITEMAKTLEEFVLSPLQTTVSSVKPASIKEKKHMKITRMVRDQNGILQRRTQLVTDQKVIAAYIQRKQEQEKAEIDAEKISFTNDEEQNRRAKKILEEELERLEKSKERRIARKKLKEGLPVVSSLSNTDSDARLSGKGIGKGKSTSRRCATCGALGHIRTNKACPMYYSAMNKSNPNMSDLPVYDIQY

From paper PMC6220335, “Molecular structure of promoter-bound yeast TFIID” (Nature Communications, 2018)
